Patent publication US20200317768A1 (published 2020)

Legend:
Test in all cases: SPR (Biacore), antibody captured, FcgR analyte
[1] = biological target: T1, cynomolgus monkey FcγRIIa1 extracellular domain, C-terminal His-tag (cynomolgus monkey)
T1 construct: also called cyno FcγRIIa1; cynoFcgRIIa1
T1 chain: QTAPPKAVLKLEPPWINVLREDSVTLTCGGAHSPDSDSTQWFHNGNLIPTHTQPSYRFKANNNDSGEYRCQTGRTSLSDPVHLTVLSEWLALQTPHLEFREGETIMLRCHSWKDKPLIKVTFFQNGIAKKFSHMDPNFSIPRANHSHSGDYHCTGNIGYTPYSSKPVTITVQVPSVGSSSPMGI

[2] = biological target: T2, cynomolgus monkey FcγRIIa2 extracellular domain, C-terminal His-tag (cynomolgus monkey)
T2 construct: also called cyno FcγRIIa2; cynoFcgRIIa2
T2 chain: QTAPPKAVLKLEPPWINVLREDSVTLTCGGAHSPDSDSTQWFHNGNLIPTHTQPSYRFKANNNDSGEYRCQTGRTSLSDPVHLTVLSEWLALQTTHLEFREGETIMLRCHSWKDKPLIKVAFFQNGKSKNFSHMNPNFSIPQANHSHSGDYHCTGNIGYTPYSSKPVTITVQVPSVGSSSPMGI

[3] = biological target: T3, cynomolgus monkey FcγRIIa3 extracellular domain, C-terminal His-tag (cynomolgus monkey)
T3 construct: also called cyno FcγRIIa3; cynoFcgRIIa3
T3 chain: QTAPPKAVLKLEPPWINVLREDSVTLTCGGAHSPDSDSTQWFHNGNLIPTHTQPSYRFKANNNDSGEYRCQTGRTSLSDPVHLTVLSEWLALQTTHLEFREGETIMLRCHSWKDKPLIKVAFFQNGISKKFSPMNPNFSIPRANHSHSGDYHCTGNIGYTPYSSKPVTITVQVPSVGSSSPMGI

[4] = biological target: T4, cynomolgus monkey FcγRIIb extracellular domain, C-terminal His-tag (cynomolgus monkey)
T4 construct: also called cyno FcγRIIb; cynoFcγRIIb
T4 chain: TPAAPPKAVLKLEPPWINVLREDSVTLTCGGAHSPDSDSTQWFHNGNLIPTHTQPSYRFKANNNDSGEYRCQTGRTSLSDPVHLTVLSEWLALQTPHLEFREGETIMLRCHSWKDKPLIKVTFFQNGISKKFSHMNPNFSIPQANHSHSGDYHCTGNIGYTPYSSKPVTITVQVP

[5] = biological target: T5, cynomolgus monkey FcγRIIIaS extracellular domain, C-terminal His-tag (cynomolgus monkey, UniProt Q8SPW2 21-206 at identity 1.00))
T5 construct: also called cyno FcγRIIIaS; cynoFcγRIIIaS
T5 chain: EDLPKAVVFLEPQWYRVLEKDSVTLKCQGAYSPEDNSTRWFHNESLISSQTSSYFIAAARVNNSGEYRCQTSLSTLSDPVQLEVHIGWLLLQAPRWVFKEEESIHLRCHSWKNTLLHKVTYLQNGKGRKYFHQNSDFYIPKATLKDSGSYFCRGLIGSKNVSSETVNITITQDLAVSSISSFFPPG

[6] = biological target: T6, human FcγRIIb extracellular domain, C-terminal His-tag (human, UniProt P31994 43-217)
T6 construct: also called human FcgRIIb; FcgRIIb
T6 sequence: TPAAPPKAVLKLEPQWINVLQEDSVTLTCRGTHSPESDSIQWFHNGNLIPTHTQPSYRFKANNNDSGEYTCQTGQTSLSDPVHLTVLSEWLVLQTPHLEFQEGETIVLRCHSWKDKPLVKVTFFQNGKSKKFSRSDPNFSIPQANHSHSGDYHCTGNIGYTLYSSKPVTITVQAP

[7] = biological target: T7, human FcγRIIIaV extracellular domain, C-terminal His-tag (human, UniProt P08637 17-208)
T7 construct: also called human FcgRIIIaV; FcgRIIIaV
T7 sequence (P08637 17-208 F176V): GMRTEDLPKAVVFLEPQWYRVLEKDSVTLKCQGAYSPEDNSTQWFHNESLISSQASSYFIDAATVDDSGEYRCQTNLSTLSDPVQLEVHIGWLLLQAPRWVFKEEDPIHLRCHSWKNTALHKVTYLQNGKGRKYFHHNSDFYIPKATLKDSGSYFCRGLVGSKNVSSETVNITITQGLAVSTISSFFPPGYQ

Binder | Kd [1] [µM] | Kd [2] [µM] | Kd [3] [µM] | Kd [4] [µM] | Kd [5] [µM] | Kd [6] [µM] | Kd [7] [µM]
MS_M103205H795-SG1/M103202L889-SK1 (antibody, human IgG1, kappa, Parent of the Fc variants; also called MS1032LO06-SG1) heavy: not shown light: DIVMTQSPATLSLSPGERATLSCTSSQSVYHANWLSWFQQKPGQPPKLLIYWASTLAYGVPSRFSGSGSGTDFTLTISSLQPEDAATYYCAGGYGGGRYAFGQGTKVEIKRTVAAPSVFIFPPSDEQLKSGTASVVCLLNNFYPREAKVQWKVDNALQSGNSQESVTEQDSKDSTYSLSSTLTLSKADYEKHKVYACEVTHQGLSSPVTKSFNRGEC | 3.2 | 5.1 | 17 | 1.8 | 0.36 | 4.6 | 0.81
M103205H795-MY052/M103202L889-SK1 (antibody, human IgG1, kappa, Substitutions introduced into M103205H795-SG1; expressed with M103202L889-SK1 as light chain) heavy: QVTLKESGPVLVKPTETLTLTCTVSGIDLSHDDISWVRQAPGKGLEWVGIISYAGSTYYASWAKGRLTISKDTSKNQVVLTMTNMDPVDTATYYCARGVPAYSHGGDLWGQGTLVTVSSASTKGPSVFPLAPSSKSTSGGTAALGCLVKDYFPEPVTVSWNSGALTSGVHTFPAVLQSSGLYSLSSVVTVPSSSLGTQTYICNVNHKPSNTKVDKKVEPKSCDKTHTCPPCPAPELLNGPSVFLFPPKPKDTLMISRTPEVTCVVVDVSEEDPEVKFNWYVDGVEVHNAKTKPREEQYNSTYRVVSVLTVLHQDWLNGKEYKCKVSNKALPAPIEKTISKAKGQPREPQVYTLPPSREEMTKNQVSLTCLVKGFYPSDIAVEWESNGQPENNYKTTPMVLDSDGSFFLYSKLTVDKSRWQQGNVFSCSVMHEALHNHYTQKSLSLSP light: DIVMTQSPATLSLSPGERATLSCTSSQSVYHANWLSWFQQKPGQPPKLLIYWASTLAYGVPSRFSGSGSGTDFTLTISSLQPEDAATYYCAGGYGGGRYAFGQGTKVEIKRTVAAPSVFIFPPSDEQLKSGTASVVCLLNNFYPREAKVQWKVDNALQSGNSQESVTEQDSKDSTYSLSSTLTLSKADYEKHKVYACEVTHQGLSSPVTKSFNRGEC | 1.4 | 1.5 | 3.9 | 0.46 | 1.5 | 0.72 | 4.6
M103205H795-MY050/M103202L889-SK1 (antibody, human IgG1, kappa, Substitutions introduced into M103205H795-SG1; expressed with M103202L889-SK1 as light chain) heavy: QVTLKESGPVLVKPTETLTLTCTVSGIDLSHDDISWVRQAPGKGLEWVGIISYAGSTYYASWAKGRLTISKDTSKNQVVLTMTNMDPVDTATYYCARGVPAYSHGGDLWGQGTLVTVSSASTKGPSVFPLAPSSKSTSGGTAALGCLVKDYFPEPVTVSWNSGALTSGVHTFPAVLQSSGLYSLSSVVTVPSSSLGTQTYICNVNHKPSNTKVDKKVEPKSCDKTHTCPPCPAPELLNGPSVFLFPPKPKDTLMISRTPEVTCVVVDVAEEDPEVKFNWYVDGVEVHNAKTKPREEQYNSTYRVVSVLTVLHQDWLNGKEYKCKVSNKALPAPIEKTISKAKGQPREPQVYTLPPSREEMTKNQVSLTCLVKGFYPSDIAVEWESNGQPENNYKTTPPVLDSDGSFFLYSKLTVDKSRWQQGNVFSCSVMHEALHNHYTQKSLSLSP light: DIVMTQSPATLSLSPGERATLSCTSSQSVYHANWLSWFQQKPGQPPKLLIYWASTLAYGVPSRFSGSGSGTDFTLTISSLQPEDAATYYCAGGYGGGRYAFGQGTKVEIKRTVAAPSVFIFPPSDEQLKSGTASVVCLLNNFYPREAKVQWKVDNALQSGNSQESVTEQDSKDSTYSLSSTLTLSKADYEKHKVYACEVTHQGLSSPVTKSFNRGEC | 4.3 | 4.2 | 19 | 1.4 | 1.7 | 0.75 | 3.3
M103205H795-MY001/M103202L889-SK1 (antibody, human IgG1, kappa, Substitutions introduced into M103205H795-SG1; expressed with M103202L889-SK1 as light chain) heavy: not shown light: DIVMTQSPATLSLSPGERATLSCTSSQSVYHANWLSWFQQKPGQPPKLLIYWASTLAYGVPSRFSGSGSGTDFTLTISSLQPEDAATYYCAGGYGGGRYAFGQGTKVEIKRTVAAPSVFIFPPSDEQLKSGTASVVCLLNNFYPREAKVQWKVDNALQSGNSQESVTEQDSKDSTYSLSSTLTLSKADYEKHKVYACEVTHQGLSSPVTKSFNRGEC | 29 | 3.6 | 15 | 1.8 | 1.2 | 7.7 | 18
M103205H795-MY048/M103202L889-SK1 (antibody, human IgG1, kappa, Substitutions introduced into M103205H795-SG1; expressed with M103202L889-SK1 as light chain) heavy: not shown light: DIVMTQSPATLSLSPGERATLSCTSSQSVYHANWLSWFQQKPGQPPKLLIYWASTLAYGVPSRFSGSGSGTDFTLTISSLQPEDAATYYCAGGYGGGRYAFGQGTKVEIKRTVAAPSVFIFPPSDEQLKSGTASVVCLLNNFYPREAKVQWKVDNALQSGNSQESVTEQDSKDSTYSLSSTLTLSKADYEKHKVYACEVTHQGLSSPVTKSFNRGEC | 14 | 1.7 | 70 | 0.91 | 0.054 | 3.3 | 12
M103205H795-MY049/M103202L889-SK1 (antibody, human IgG1, kappa, Substitutions introduced into M103205H795-SG1; expressed with M103202L889-SK1 as light chain) heavy: not shown light: DIVMTQSPATLSLSPGERATLSCTSSQSVYHANWLSWFQQKPGQPPKLLIYWASTLAYGVPSRFSGSGSGTDFTLTISSLQPEDAATYYCAGGYGGGRYAFGQGTKVEIKRTVAAPSVFIFPPSDEQLKSGTASVVCLLNNFYPREAKVQWKVDNALQSGNSQESVTEQDSKDSTYSLSSTLTLSKADYEKHKVYACEVTHQGLSSPVTKSFNRGEC | 2.7 | 2.3 | 6.6 | 0.85 | 4.6 | 1.5 | 7.8
M103205H795-MY047/M103202L889-SK1 (antibody, human IgG1, kappa, Substitutions introduced into M103205H795-SG1; expressed with M103202L889-SK1 as light chain) heavy: not shown light: DIVMTQSPATLSLSPGERATLSCTSSQSVYHANWLSWFQQKPGQPPKLLIYWASTLAYGVPSRFSGSGSGTDFTLTISSLQPEDAATYYCAGGYGGGRYAFGQGTKVEIKRTVAAPSVFIFPPSDEQLKSGTASVVCLLNNFYPREAKVQWKVDNALQSGNSQESVTEQDSKDSTYSLSSTLTLSKADYEKHKVYACEVTHQGLSSPVTKSFNRGEC | 4.8 | 3.4 | 24 | 2.6 | 7.8 | 3.7 | 7.7
M103205H795-MY051/M103202L889-SK1 (antibody, human IgG1, kappa, Substitutions introduced into M103205H795-SG1; expressed with M103202L889-SK1 as light chain) heavy: QVTLKESGPVLVKPTETLTLTCTVSGIDLSHDDISWVRQAPGKGLEWVGIISYAGSTYYASWAKGRLTISKDTSKNQVVLTMTNMDPVDTATYYCARGVPAYSHGGDLWGQGTLVTVSSASTKGPSVFPLAPSSKSTSGGTAALGCLVKDYFPEPVTVSWNSGALTSGVHTFPAVLQSSGLYSLSSVVTVPSSSLGTQTYICNVNHKPSNTKVDKKVEPKSCDKTHTCPPCPAPELLNGPSVFLFPPKPKDTLMISRTPEVTCVVVDVSEEDGEVKFNWYVDGVEVHNAKTKPREEQYNSTYRVVSVLTVLHQDWLNGKEYKCKVSNKALPAPIEKTISKAKGQPREPQVYTLPPSREEMTKNQVSLTCLVKGFYPSDIAVEWESNGQPENNYKTTPPVLDSDGSFFLYSKLTVDKSRWQQGNVFSCSVMHEALHNHYTQKSLSLSP light: DIVMTQSPATLSLSPGERATLSCTSSQSVYHANWLSWFQQKPGQPPKLLIYWASTLAYGVPSRFSGSGSGTDFTLTISSLQPEDAATYYCAGGYGGGRYAFGQGTKVEIKRTVAAPSVFIFPPSDEQLKSGTASVVCLLNNFYPREAKVQWKVDNALQSGNSQESVTEQDSKDSTYSLSSTLTLSKADYEKHKVYACEVTHQGLSSPVTKSFNRGEC | 4.6 | 4.8 | 18 | 1.9 | 2.1 | 2 | 74
